Substrate: CCn1c(=NN=c2sc3cc(S(=O)(=O)O)ccc3n2CC)sc2cc(S(=O)(=O)O)ccc21
Test: purified protein
Assay type: biochemical, Thermothielavioides terrestris
Details: free enzyme, pH 3.0 glycine-HCl, 65 °C, 5 min, 0.05 to 5 mM ABTS

B1: TtLacA (Thermothielavioides terrestris NRRL 8126) (protein)
chain: MGLLRGLLESVSETLELFYTATATLTQESTNGLSLLGTLLARVLPLFLTNNPLPDGFPWGSLSDTNTNPYVDYPRTGVVRYYDFTVSRGIIAPDGYQRDVLLVNGAYPGPLIEANWGDTIVVTVHNNISNPEDGTTIHWHGFLQRETPWADGAPGISQCPIPPGSSYTYEFVASLFGTSWYHAHYSAQYAGGVVGPIVVYGPTHAKYDVDLGPIMLSDWYHREYFDIVKELLSPNASPRVLSDNNLIDGKMNFDCSTVAPGDNTPCTDRAGISKFKFQTGKTHRLRLINSGADGVQRFSIDQHTLTVIAEDFVPVKPYNTTVVTLGVGQRTDVLVTANAGPPDSLFWMRSNLTTCSPARQPNALAAVYYDKADTSATPSSRPWDVPDPGTCANDPLDISEPLYPIPLPKPAITQTMDIELFKNASNVTLWKFNGVSMRTDYNSPVILLANQGNFSYPPEWNVVNYQQTTAIRIIINNKGPGPHPMHLHGHNFYILHEGPGEWDGTIVRPSNPMRRDVELVRGNGHLVIQFDGAPGVWAFHCHIAWHSSGGFLASLLVQPHKVQQMHLPGDVEQNCRAWDLWTKHNVVDQIDSGT
notes: native secreted enzyme purified from culture supernatant, free (not immobilised); 70 kDa by SDS-PAGE; MS/MS peptides QPNALAAVYYDK, YDVDLGPIMLSDWYHR, VLSDNNLIDGK, LINSGADGVQR
With B1 the Km was 260 µM and the kcat was 13.73 s⁻¹.
